Experimental data from doi:10.1101/2025.09.11.675134, “Biodistribution-Driven Discovery Identifies a Glycosidase-Cleavable Linker to Reprogram Radiotheranostics” (bioRxiv, 2025).
Where two headings read alike, the source gives them in different places. Positions of bridges follow the written chain, without caps; N, C: chain ends. Non-standard residues stand in square brackets, D forms with d. Residues, ends and D or L forms follow the SMILES beside them. *: point of attachment. X1 = C[C@H](CCC(=O)*)[C@H]1CC[C@H]2[C@@H]3[C@H](O)C[C@@H]4C[C@@H](NC(=O)CNC(=O)CN5CCN(CC(=O)O)CCN(CC(=O)O)CCN(CC(=O)O)CC5)CC[C@]4(C)[C@H]3C[C@H](O)[C@]12C; DOTA = O=C(O)CN1CCN(CC(=O)O)CCN(CC(=O)*)CCN(CC(=O)O)CC1

Test: Ex vivo biodistribution screen of 111In-labeled DOTA-TATE derivatives in normal mice
Parameters: species or system athymic nude mice
Conditions: 2 h post-injection; for tissue uptake at 2 h: athymic nude, mouse, iv, 1 ug per mouse, total radioactivity; for tissue uptake at 2 h / Kidney uptake: normal athymic nude mice; for Relative kidney retention, % rel. to DOTA-TATE: normal mice, 111In-DOTA-TATE set as 100%; for Kidney uptake: n = 2–4
Description: The panel of 10 compounds were then tested in an initial biodistribution screen of 9 organs assessed in non-tumor-bearing mice at specific timepoints following administration of the radioconjugates. Each agent was initially labeled with ^111In, a long-lived gamma-emitting radioisotope suitable for biodistribution studies, with high radiochemical yields and purity (Fig. S12). The compounds were then dosed (1.55 ± 0.12 MBq; 1 μg per mouse) in healthy athymic nude mice via intravenous (i.v.) injection in phosphate-buffered saline (PBS; vehicle). After 2 hours, the mice were sacrificed and ex vivo biodistribution analysis was performed (Fig. 2). […] This was an expected finding because this variant was designed to bind serum albumin.
Radiolabeling and In Vivo Evaluation of DOTA-TATE Variants:
Biodistribution, PET Quantification, and Dosimetry
Radiolabeling: To perform the initial biodistribution screen, radiolabeling of 10 compounds, including DOTA-TATE, was carried out using 111In (Cardinal Health, Arbutus, MD, USA), an affordable and readily available gamma -emitting radioisotope with a moderate half -life (2.83 days), which affords efficient DOTA radiolabeling and facilitates handling. 111InCl3 (28 – 36 MBq) was diluted with 0.4 M NH 4OAc buffer (pH 5.2) and combined with DOTA -TATE variants (20 μg). The solution was mixed well and then incubated at 90 °C for 30 min.
Radiolabeling efficiency and radiochemical purity were determined by radio -TLC and radio - HPLC. Radiochemical yield was >95% and the material was used without further purification.
The specific activity was 1.55 ± 0.12 TBq/g (41.9 ± 3.2 Ci/g). […]
Radio-instant thin-layer chromatography (radio-iTLC) was performed using silicic acid-impregnated glass microfiber paper strips (iTLC-SA, Varian, Lake Forest, CA, USA) as the stationary phase, and 50 mM EDTA in 100 mM NH4OAc (pH 5.5) as the mobile phase, analyzed with a radio-TLC scanner (AR-2000, Eckert-Ziegler, Wilmington, MA, USA). For Ac-225, equilibration was allowed for at least 12 hours before scanning the TLC strips to confirm initial scans. Radio-HPLC analysis (Agilent 1260 Infinity II, Agilent Technologies Inc., Santa Clara, CA, USA) was conducted on a TSK- Octadecyl-4PW column (5 µm, 4.6 mm ID × 15 cm, Tosoh
Co. Tokyo, Japan) with gradient elution using 0.1% trifluoroacetic acid in water as mobile phase A and 0.1% trifluoroacetic acid in acetonitrile as Mobile phase B. The elution sequence was 0-5 […]
PET imaging and biodistribution: For initial biodistribution screen studies, normal mice were administered 1.4 – 1.8 MBq (1 μg) of 111In-DOTA-TATE variants via tail vein injection and biodistribution studies were conducted at 2 hours post -injection (n = 2 – 4 per cohort).
For studies involving three variants (DOTA -TATE, DOTA-MVK(ε)-TATE, and DOTA-β-Gal-TATE), AR42J cells (5 × 10^6 cells per mouse) were subcutaneously inoculated into the right shoulder of the mice. Tumors were allowed to grow for 3 weeks, reaching a volume of 100 –200 mm³ before being used in subsequent experiments. For biodistribution or PET imaging studies, mice bearing subcutaneous AR42J tumors were administered 1.4 – 1.8 MBq (1 μg) of 111In-labeled DOTA-TATE variants or 2.7 – 4.9 MBq (1 μg) of 86Y-labeled DOTA-TATE variants via tail vein injection. Biodistribution studies with 111In-labeled DOTA -TATE variants were performed 1 hour post -injection (n = 3 per cohort), while studies with 86Y-labeled DOTA-TATE variants were conducted at 1, 4, and 24 hours post -injection (n = 3 per cohort). Mice were euthanized by CO2 asphyxiation, and 10 tissues, including tumors, were collected. All samples were weighed and counted on a gamma counter (2480 Wizard 3, Perkin Elmer Inc., Waltham, MA, USA). Results are presented as percentage of injected activity per gram (%IA/g) and mean values ± standard deviations.
PET imaging to assess the uptake of three 86Y-labeled DOTA-TATE variants (2.7 – 4.9 MBq, 1 […]

[1] = blood, i.v. 1 μg (1.4–1.8 MBq), ex vivo gamma counting, mean, n = 2–4, read-out: Blood uptake
[2] = femur, i.v. 1 μg, ex vivo, mean, n = 2–4, read-out: Femur uptake
[3] = heart, i.v. 1 μg, ex vivo, mean, n = 2–4, read-out: Heart uptake
[4] = intestine, i.v. 1 μg, ex vivo, mean, n = 2–4, read-out: Intestine uptake
[5] = kidney, i.v. 1 μg, ex vivo, mean (± SD), n = 2–4, read-out: Kidney uptake
[6] = liver, i.v. 1 μg, ex vivo, mean, n = 2–4, read-out: Liver uptake
[7] = lung, i.v. 1 μg, ex vivo, mean, n = 2–4, read-out: Lung uptake
[8] = muscle, i.v. 1 μg, ex vivo, mean, n = 2–4, read-out: Muscle uptake
[9] = spleen, i.v. 1 μg, ex vivo, mean, n = 2–4, read-out: Spleen uptake
[10] = i.v. 1 μg, ex vivo, mean (± SD)
[11] = in vivo, i.v. 1 μg, ex vivo, mean (± SD), n = 2–4, read-out: Kidney uptake

C[C@@H](O)[C@H](NC(=O)[C@@H]1CSSC[C@H](NC(=O)[C@@H](Cc2ccccc2)NC(=O)CCCC(=O)Nc2cc(COC(=O)N(C)CCNC(=O)CN3CCN(CC(=O)O)CCN(CC(=O)O)CCN(CC(=O)O)CC3)ccc2O[C@@H]2O[C@H](C(=O)O)[C@@H](O)[C@H](O)[C@H]2O)C(=O)N[C@@H](Cc2ccc(O)cc2)C(=O)N[C@H](Cc2c[nH]c3ccccc23)C(=O)N[C@@H](CCCCN)C(=O)N[C@@H]([C@@H](C)O)C(=O)N1)C(=O)O [^111In-DOTA-GlcA-TATE, metal not drawn]
tissue uptake at 2 h [1]: 0.08 %ID/g | tissue uptake at 2 h [2]: 0.1 %ID/g | tissue uptake at 2 h [3]: 0.08 %ID/g | tissue uptake at 2 h [4]: 0.44 %ID/g | tissue uptake at 2 h [5]: 8.88 %ID/g | tissue uptake at 2 h [6]: 0.13 %ID/g | tissue uptake at 2 h [7]: 0.19 %ID/g | tissue uptake at 2 h [8]: 0.03 %ID/g | tissue uptake at 2 h [9]: 0.08 %ID/g | Relative kidney retention, % rel. to DOTA-TATE: 147%

CSCC[C@H](NC(=O)CN1CCN(CC(=O)O)CCN(CC(=O)O)CCN(CC(=O)O)CC1)C(=O)N[C@H](C(=O)N[C@@H](CCCCN)C(=O)N[C@H](Cc1ccccc1)C(=O)N[C@H]1CSSC[C@@H](C(=O)N[C@H](C(=O)O)[C@@H](C)O)NC(=O)[C@H]([C@@H](C)O)NC(=O)[C@H](CCCCN)NC(=O)[C@@H](Cc2c[nH]c3ccccc23)NC(=O)[C@H](Cc2ccc(O)cc2)NC1=O)C(C)C [^111In-DOTA-MVK-TATE, metal not drawn] ({DOTA}-MVK[dF]CY[dW]KTCT-OH; disulfide 5-10)
tissue uptake at 2 h [1]: 0.09 %ID/g | tissue uptake at 2 h [2]: 0.25 %ID/g | tissue uptake at 2 h [3]: 0.07 %ID/g | tissue uptake at 2 h [4]: 0.78 %ID/g | tissue uptake at 2 h [6]: 0.25 %ID/g | tissue uptake at 2 h [7]: 0.51 %ID/g | tissue uptake at 2 h [8]: 0.02 %ID/g | tissue uptake at 2 h [9]: 0.18 %ID/g | Kidney uptake [10]: 75.65 %IA/g | Relative kidney retention, % rel. to DOTA-TATE: 1251%

C[C@H](CCC(=O)NCC(=O)N[C@H](Cc1ccccc1)C(=O)N[C@H]1CSSC[C@@H](C(=O)N[C@H](C(=O)O)[C@@H](C)O)NC(=O)[C@H]([C@@H](C)O)NC(=O)[C@H](CCCCN)NC(=O)[C@@H](Cc2c[nH]c3ccccc23)NC(=O)[C@H](Cc2ccc(O)cc2)NC1=O)[C@H]1CC[C@H]2[C@@H]3[C@H](O)C[C@@H]4C[C@@H](NC(=O)CNC(=O)CN5CCN(CC(=O)O)CCN(CC(=O)O)CCN(CC(=O)O)CC5)CC[C@]4(C)[C@H]3C[C@H](O)[C@]12C [DOTA-G-Chol-G-TATE] (X1-G[dF]CY[dW]KTCT-OH; disulfide 3-8)
tissue uptake at 2 h [1]: 1.7 %ID/g | tissue uptake at 2 h [5]: 9.6 %ID/g

C[C@@H](O)[C@H](NC(=O)[C@@H]1CSSC[C@H](NC(=O)[C@@H](Cc2ccccc2)NC(=O)CCCC(=O)Nc2cc(COC(=O)N(C)CCNC(=O)CN3CCN(CC(=O)O)CCN(CC(=O)O)CCN(CC(=O)O)CC3)ccc2O[C@@H]2O[C@H](CO)[C@@H](O)[C@H](O)[C@H]2O)C(=O)N[C@@H](Cc2ccc(O)cc2)C(=O)N[C@H](Cc2c[nH]c3ccccc23)C(=O)N[C@@H](CCCCN)C(=O)N[C@@H]([C@@H](C)O)C(=O)N1)C(=O)O [^111In-DOTA-β-Glu-TATE, metal not drawn]
tissue uptake at 2 h (in vivo, i.v. 1 μg (1.4–1.8 MBq), ex vivo gamma counting, mean, n = 2–4, read-out: Blood uptake): 0.09 %ID/g | tissue uptake at 2 h [11]: 6.34 %ID/g | tissue uptake at 2 h (in vivo, i.v. 1 μg, ex vivo, mean, n = 2–4, read-out: Femur uptake): 0.21 %ID/g | tissue uptake at 2 h (in vivo, i.v. 1 μg, ex vivo, mean, n = 2–4, read-out: Heart uptake): 0.07 %ID/g | tissue uptake at 2 h (in vivo, i.v. 1 μg, ex vivo, mean, n = 2–4, read-out: Intestine uptake): 1.07 %ID/g | tissue uptake at 2 h (in vivo, i.v. 1 μg, ex vivo, mean, n = 2–4, read-out: Liver uptake): 0.19 %ID/g | tissue uptake at 2 h (in vivo, i.v. 1 μg, ex vivo, mean, n = 2–4, read-out: Lung uptake): 0.51 %ID/g | tissue uptake at 2 h (in vivo, i.v. 1 μg, ex vivo, mean, n = 2–4, read-out: Muscle uptake): 0.03 %ID/g | tissue uptake at 2 h (in vivo, i.v. 1 μg, ex vivo, mean, n = 2–4, read-out: Spleen uptake): 0.16 %ID/g | Relative kidney retention, % rel. to DOTA-TATE: 105%

C[C@@H](O)[C@H](NC(=O)[C@@H]1CSSC[C@H](NC(=O)[C@@H](Cc2ccccc2)NC(=O)CCCC(=O)Nc2cc(COC(=O)N(C)CCNC(=O)CN3CCN(CC(=O)O)CCN(CC(=O)O)CCN(CC(=O)O)CC3)ccc2O[C@@H]2O[C@H](CO)[C@H](O)[C@H](O)[C@H]2O)C(=O)N[C@@H](Cc2ccc(O)cc2)C(=O)N[C@H](Cc2c[nH]c3ccccc23)C(=O)N[C@@H](CCCCN)C(=O)N[C@@H]([C@@H](C)O)C(=O)N1)C(=O)O [DOTA-β-Gal-TATE]
tissue uptake at 2 h [11]: 4.1 %ID/g

C[C@@H](O)[C@H](NC(=O)[C@@H]1CSSC[C@H](NC(=O)[C@@H](Cc2ccccc2)NC(=O)CNC(=O)[C@H](CC(=O)O)NC(=O)[C@H](CC(=O)O)NC(=O)[C@H](CC(=O)O)NC(=O)CNC(=O)CN2CCN(CC(=O)O)CCN(CC(=O)O)CCN(CC(=O)O)CC2)C(=O)N[C@@H](Cc2ccc(O)cc2)C(=O)N[C@H](Cc2c[nH]c3ccccc23)C(=O)N[C@@H](CCCCN)C(=O)N[C@@H]([C@@H](C)O)C(=O)N1)C(=O)O [^111In-DOTA-GDDDG-TATE, metal not drawn] ({DOTA}-GDDDG[dF]CY[dW]KTCT-OH; disulfide 7-12)
tissue uptake at 2 h [1]: 0.05 %ID/g | tissue uptake at 2 h [2]: 0.07 %ID/g | tissue uptake at 2 h [3]: 0.04 %ID/g | tissue uptake at 2 h [4]: 0.11 %ID/g | tissue uptake at 2 h [6]: 0.07 %ID/g | tissue uptake at 2 h [7]: 0.25 %ID/g | tissue uptake at 2 h [8]: 0.02 %ID/g | tissue uptake at 2 h [9]: 0.05 %ID/g | Kidney uptake [10]: 13.45 %IA/g | Relative kidney retention, % rel. to DOTA-TATE: 222%
